Measured values reported in publication PMC6822712.

Columns and labels:
TrkA (human) (human) = TrkA (human) (human) (UniProt P04629)
TrkB (human) (human) = TrkB (human) (human) (UniProt Q16620)
TrkB (rat) (rat) = TrkB (rat) (rat) (UniProt Q63604)
TrkC (human) (human) = TrkC (human) (human) (UniProt Q16288)
TrkC (rat) (rat) = TrkC (rat) (rat) (UniProt Q03351)
UniProt Q03351, sequence (Q03351 32-864): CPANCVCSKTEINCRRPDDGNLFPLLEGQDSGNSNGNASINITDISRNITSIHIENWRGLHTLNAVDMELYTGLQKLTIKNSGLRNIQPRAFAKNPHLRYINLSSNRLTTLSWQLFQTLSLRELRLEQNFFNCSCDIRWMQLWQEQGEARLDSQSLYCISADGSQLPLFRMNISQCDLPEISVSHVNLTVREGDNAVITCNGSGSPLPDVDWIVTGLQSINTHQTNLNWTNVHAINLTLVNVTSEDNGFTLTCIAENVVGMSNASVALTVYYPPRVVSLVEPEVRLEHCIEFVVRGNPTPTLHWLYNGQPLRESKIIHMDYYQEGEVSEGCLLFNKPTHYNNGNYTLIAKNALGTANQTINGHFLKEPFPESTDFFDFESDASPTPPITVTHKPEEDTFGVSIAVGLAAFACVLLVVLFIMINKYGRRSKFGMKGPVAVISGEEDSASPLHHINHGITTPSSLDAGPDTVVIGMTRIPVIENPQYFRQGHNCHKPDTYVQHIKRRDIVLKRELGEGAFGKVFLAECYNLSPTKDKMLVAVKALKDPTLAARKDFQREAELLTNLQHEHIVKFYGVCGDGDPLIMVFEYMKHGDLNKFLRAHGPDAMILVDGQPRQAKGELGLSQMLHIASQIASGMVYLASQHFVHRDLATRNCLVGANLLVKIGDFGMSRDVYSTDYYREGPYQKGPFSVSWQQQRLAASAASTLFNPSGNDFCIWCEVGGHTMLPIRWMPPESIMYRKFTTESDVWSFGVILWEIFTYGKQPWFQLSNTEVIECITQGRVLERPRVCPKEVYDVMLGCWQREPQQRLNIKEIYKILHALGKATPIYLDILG

UniProt Q16288, sequence (Q16288 32-839): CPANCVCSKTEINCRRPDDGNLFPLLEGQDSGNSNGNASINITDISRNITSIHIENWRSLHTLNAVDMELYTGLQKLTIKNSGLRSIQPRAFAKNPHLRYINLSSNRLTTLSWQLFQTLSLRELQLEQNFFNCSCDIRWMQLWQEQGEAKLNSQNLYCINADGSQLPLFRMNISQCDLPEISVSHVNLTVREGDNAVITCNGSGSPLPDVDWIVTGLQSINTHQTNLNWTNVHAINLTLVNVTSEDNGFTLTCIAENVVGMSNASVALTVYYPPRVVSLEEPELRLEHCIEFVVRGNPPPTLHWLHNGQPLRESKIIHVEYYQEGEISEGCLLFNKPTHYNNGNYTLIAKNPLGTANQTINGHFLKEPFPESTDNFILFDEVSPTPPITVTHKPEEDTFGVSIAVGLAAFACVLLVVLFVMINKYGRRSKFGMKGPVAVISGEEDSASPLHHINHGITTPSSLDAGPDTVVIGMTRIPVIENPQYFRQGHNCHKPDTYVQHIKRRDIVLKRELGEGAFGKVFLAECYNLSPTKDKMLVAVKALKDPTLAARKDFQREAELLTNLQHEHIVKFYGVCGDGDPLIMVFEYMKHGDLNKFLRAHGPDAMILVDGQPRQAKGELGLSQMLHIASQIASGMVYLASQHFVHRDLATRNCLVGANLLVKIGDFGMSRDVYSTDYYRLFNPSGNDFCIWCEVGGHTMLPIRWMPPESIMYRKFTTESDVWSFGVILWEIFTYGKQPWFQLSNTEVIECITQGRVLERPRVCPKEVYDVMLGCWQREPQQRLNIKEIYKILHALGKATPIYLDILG
UniProt P04629, sequence (P04629 33-796): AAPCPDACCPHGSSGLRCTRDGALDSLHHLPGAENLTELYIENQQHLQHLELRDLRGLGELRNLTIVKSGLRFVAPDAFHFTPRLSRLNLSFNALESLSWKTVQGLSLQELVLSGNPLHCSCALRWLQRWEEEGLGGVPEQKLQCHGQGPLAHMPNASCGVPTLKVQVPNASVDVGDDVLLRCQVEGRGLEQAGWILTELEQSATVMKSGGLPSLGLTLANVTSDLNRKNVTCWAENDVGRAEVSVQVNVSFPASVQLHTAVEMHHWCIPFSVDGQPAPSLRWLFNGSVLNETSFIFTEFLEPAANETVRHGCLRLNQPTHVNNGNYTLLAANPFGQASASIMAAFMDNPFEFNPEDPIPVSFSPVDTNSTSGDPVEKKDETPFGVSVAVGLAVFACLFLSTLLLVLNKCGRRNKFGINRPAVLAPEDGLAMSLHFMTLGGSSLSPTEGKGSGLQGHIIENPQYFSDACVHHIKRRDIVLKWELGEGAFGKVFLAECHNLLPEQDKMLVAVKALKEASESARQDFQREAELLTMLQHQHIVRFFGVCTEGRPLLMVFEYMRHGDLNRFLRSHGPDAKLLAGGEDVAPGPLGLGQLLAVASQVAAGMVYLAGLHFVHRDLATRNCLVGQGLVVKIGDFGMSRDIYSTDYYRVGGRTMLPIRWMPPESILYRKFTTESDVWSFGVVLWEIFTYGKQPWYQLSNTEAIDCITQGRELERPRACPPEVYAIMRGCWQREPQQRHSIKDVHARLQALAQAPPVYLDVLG
UniProt Q63604, sequence (Q63604 32-821): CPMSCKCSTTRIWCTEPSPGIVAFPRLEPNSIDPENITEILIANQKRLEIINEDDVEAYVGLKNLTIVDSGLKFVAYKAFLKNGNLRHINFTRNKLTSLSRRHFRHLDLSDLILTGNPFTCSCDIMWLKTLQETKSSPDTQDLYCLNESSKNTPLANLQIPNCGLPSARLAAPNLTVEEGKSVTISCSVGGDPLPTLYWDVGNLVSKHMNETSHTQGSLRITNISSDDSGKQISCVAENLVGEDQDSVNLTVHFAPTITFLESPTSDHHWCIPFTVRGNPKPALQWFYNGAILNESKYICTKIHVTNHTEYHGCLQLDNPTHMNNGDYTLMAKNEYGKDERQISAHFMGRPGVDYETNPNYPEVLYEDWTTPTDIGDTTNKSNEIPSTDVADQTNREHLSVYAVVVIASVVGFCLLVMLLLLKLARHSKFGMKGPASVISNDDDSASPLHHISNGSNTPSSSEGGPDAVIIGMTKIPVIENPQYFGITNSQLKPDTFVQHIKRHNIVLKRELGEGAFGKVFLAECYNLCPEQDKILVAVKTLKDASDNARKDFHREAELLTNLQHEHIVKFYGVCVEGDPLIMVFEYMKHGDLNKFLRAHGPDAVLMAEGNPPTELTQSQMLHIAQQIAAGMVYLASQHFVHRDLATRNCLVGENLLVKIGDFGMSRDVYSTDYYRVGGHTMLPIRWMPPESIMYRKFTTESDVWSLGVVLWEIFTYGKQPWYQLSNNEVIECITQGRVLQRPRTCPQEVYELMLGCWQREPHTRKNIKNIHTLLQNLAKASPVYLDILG
UniProt Q16620, sequence (Q16620 32-822): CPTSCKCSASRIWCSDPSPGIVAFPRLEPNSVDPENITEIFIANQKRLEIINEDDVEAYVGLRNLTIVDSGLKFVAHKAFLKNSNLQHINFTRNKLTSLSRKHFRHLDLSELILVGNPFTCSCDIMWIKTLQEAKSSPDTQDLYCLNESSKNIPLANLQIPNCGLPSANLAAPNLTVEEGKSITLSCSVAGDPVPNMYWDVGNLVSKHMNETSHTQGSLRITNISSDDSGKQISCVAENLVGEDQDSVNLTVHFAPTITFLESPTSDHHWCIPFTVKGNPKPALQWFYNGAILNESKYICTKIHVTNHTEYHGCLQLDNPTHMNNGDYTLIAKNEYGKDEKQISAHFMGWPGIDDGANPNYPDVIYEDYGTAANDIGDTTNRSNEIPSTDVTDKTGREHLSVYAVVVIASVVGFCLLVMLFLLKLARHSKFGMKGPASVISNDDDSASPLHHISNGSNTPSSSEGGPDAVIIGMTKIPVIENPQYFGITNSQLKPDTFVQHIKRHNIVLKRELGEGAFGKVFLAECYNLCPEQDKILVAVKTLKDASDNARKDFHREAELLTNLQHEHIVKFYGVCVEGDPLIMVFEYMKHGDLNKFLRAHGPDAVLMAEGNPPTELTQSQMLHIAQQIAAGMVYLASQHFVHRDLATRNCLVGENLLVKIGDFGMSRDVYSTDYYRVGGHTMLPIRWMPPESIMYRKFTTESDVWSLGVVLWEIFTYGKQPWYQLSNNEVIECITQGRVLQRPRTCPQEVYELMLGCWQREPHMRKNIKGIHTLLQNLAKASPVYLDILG

BDNF (ligand)
EC50 of ERK phosphorylation (phospho-ERK AlphaLISA), NIH3T3 cells expressing human TrkA; no response (TrkA (human) (human)): > 100 nM | EC50 of ERK phosphorylation (phospho-ERK AlphaLISA), HEK293 cells stably expressing human TrkB (TrkB (human) (human)): 0.68 nM | Max (%) of ERK phosphorylation (phospho-ERK AlphaLISA), relative to 10nM BDNF, HEK293 cells stably expressing human TrkB (TrkB (human) (human)): 114% | EC50 of ERK phosphorylation (phospho-ERK AlphaLISA), HEK293 cells stably expressing rat TrkB (TrkB (rat) (rat)): 0.19 nM | Max (%) of ERK phosphorylation (phospho-ERK AlphaLISA), relative to 10nM BDNF, HEK293 cells stably expressing rat TrkB (TrkB (rat) (rat)): 104% | EC50 of ERK phosphorylation (phospho-ERK AlphaLISA), NIH3T3 cells stably expressing human TrkC (TrkC (human) (human)): 26.8 nM | Max (%) of ERK phosphorylation (phospho-ERK AlphaLISA), relative to 10nM NT-3, NIH3T3 cells stably expressing human TrkC (TrkC (human) (human)): 104% | EC50 of ERK phosphorylation (phospho-ERK AlphaLISA), NIH3T3 cells stably expressing rat TrkC (TrkC (rat) (rat)): 4.97 nM | Max (%) of ERK phosphorylation (phospho-ERK AlphaLISA), relative to 10nM NT-3, NIH3T3 cells stably expressing rat TrkC (TrkC (rat) (rat)): 76.2%

B1: NT-3 (ligand)
chain: YAEHKSHRGEYSVCDSESLWVTDKSSAIDIRGHQVTVLGEIKTGNSPVKQYFYETRCKEARPVKNGCRGIDDKHWNSQCKTSQTYVRALTSENNKLVGWRWIRIDTSCVCALSRKIGRT
EC50 of ERK phosphorylation (phospho-ERK AlphaLISA), NIH3T3 cells expressing human TrkA (TrkA (human) (human)): 4.35 nM | Max (%) of ERK phosphorylation (phospho-ERK AlphaLISA), NIH3T3 cells expressing human TrkA (TrkA (human) (human)): 73.6% | EC50 of ERK phosphorylation (phospho-ERK AlphaLISA), HEK293 cells stably expressing human TrkB (TrkB (human) (human)): 2.05 nM | Max (%) of ERK phosphorylation (phospho-ERK AlphaLISA), relative to 10nM BDNF, HEK293 cells stably expressing human TrkB (TrkB (human) (human)): 58.5% | EC50 of ERK phosphorylation (phospho-ERK AlphaLISA), HEK293 cells stably expressing rat TrkB (TrkB (rat) (rat)): 10.7 nM | Max (%) of ERK phosphorylation (phospho-ERK AlphaLISA), relative to 10nM BDNF, HEK293 cells stably expressing rat TrkB (TrkB (rat) (rat)): 83% | EC50 of ERK phosphorylation (phospho-ERK AlphaLISA), NIH3T3 cells stably expressing human TrkC (TrkC (human) (human)): 0.4 nM | Max (%) of ERK phosphorylation (phospho-ERK AlphaLISA), relative to 10nM NT-3, NIH3T3 cells stably expressing human TrkC (TrkC (human) (human)): 106% | EC50 of ERK phosphorylation (phospho-ERK AlphaLISA), NIH3T3 cells stably expressing rat TrkC (TrkC (rat) (rat)): 0.21 nM | Max (%) of ERK phosphorylation (phospho-ERK AlphaLISA), relative to 10nM NT-3, NIH3T3 cells stably expressing rat TrkC (TrkC (rat) (rat)): 103%
